From paper doi:10.1101/553636

Target: BD-Barstar D35A
Experiment: two-hybrid

AD-Barnase H102A (enzyme)
Kd: 0.011 to 0.122 µM
